In patent publication US7005505 (Genentech, dated 2006):

Columns and labels:
[1] = target: T1, FLT-1 IgG (UniProt P17948 27-758); assay: competition with 125I-VEGF165 for FLT-1-IgG, radioligand plate assay
T1 construct: Construct only cited from Park et al. 1994; also called FLT-IgG; FLT-1 receptor-IgG chimera; not shown: IgG part of the chimera (captured by anti-human IgG Fc)
Protocol: (§1) After the supernatant was discarded, the wells were washed three times in washing buffer (0.01% Tween 80 in PBS). The plate was blocked (300 µl/well) for one hr in assay buffer (0.5% BSA, 0.03% Tween 80, 0.01% Thimerosal in PBS). The supernatant was discarded and the wells were washed. […] Aliquots of this solution (100 µl) were added to pre-coated microtiter plates and incubated for 4 hr at ambient temperature with gentle agitation. The supernatant was discarded, the plate washed, and individual microtiter wells were counted by gamma scintigraphy (LKB model 1277).

[2] = target: T2, KDR-IgG (UniProt P35968 20-764); assay: competition with 125I-VEGF165 for KDR-IgG, radioligand plate assay, no heparin
T2 construct: Construct only cited from Park et al. 1994; also called KDR receptor-IgG chimera; soluble KDR; not shown: IgG part of the chimera (captured by anti-human IgG Fc)
T2 sequence (P35968 20-764): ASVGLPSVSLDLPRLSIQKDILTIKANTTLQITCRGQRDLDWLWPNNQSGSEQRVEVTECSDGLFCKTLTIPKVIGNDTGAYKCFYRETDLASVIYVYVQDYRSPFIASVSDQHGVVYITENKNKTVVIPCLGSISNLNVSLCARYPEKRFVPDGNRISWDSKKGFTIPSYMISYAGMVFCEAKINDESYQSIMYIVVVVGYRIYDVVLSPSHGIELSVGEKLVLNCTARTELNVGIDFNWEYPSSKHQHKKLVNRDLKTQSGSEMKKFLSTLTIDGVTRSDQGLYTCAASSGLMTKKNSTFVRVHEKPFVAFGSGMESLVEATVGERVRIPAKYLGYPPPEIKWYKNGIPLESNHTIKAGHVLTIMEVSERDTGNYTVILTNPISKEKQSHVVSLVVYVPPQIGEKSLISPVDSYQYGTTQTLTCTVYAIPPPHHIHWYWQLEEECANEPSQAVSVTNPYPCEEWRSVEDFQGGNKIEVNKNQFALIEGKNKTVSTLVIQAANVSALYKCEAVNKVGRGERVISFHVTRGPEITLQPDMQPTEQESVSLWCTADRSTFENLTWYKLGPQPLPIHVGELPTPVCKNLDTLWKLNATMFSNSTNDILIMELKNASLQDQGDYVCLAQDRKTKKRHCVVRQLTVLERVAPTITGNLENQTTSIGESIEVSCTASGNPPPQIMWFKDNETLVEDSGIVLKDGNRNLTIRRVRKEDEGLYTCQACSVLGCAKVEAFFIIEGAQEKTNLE
Protocol: as §1
In addition to the specific amino acid substitutions, the table indicates the mean residue number for the position of the mutation(s). For a given mutant, this number is the average of the altered positions.

[3] = target: T1, FLT-1 IgG; assay: competition with 125I-VEGF165 for FLT-1-IgG, radioligand plate assay, no heparin
Protocol: as §1

[4] = target: T1, FLT-1 IgG; assay: competition with 125I-VEGF165 for FLT-1-IgG, radioligand plate assay; remark: listed apart in the source
Protocol: as §1

[5] = target: T2, KDR-IgG; assay: competition with 125I-VEGF165 for KDR-IgG, radioligand plate assay
Protocol: as §1

T1 sequence (P17948 27-758): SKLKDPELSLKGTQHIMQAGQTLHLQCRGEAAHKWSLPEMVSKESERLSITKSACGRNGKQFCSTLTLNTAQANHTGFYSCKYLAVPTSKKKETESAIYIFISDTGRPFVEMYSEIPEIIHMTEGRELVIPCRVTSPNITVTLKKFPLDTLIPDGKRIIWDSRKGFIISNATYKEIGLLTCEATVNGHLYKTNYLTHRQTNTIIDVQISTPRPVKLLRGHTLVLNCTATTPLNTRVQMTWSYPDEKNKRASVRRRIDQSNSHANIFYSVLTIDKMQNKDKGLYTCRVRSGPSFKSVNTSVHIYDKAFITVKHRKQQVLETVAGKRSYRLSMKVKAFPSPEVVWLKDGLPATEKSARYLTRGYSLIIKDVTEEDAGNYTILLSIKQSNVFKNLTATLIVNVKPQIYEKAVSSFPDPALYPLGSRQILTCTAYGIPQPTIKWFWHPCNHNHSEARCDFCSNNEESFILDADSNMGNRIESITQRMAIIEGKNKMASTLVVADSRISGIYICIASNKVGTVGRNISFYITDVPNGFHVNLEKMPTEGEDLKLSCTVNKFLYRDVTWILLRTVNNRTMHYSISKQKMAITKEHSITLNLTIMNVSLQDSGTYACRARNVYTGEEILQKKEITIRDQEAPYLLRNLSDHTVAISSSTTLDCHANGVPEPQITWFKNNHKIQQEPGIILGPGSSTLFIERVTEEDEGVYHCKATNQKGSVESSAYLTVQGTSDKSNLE

Row | Binder | IC50 [1] [ng/mL] | IC50 [2] [nM] | IC50 [3] [nM] | IC50 [4] [ng/mL] | IC50 [5] [ng/mL]
1 | D63A VEGF (ligand, VEGF165 mutant from 293 cells, conditioned medium) APMAEGGGQNHHEVVKFMDVYQRSYCHPIETLVDIFQEYPDEIEYIFKPSCVPLMRCGGCCNAEGLECVPTEESNITMQIMRIKPHQGQHIGEMSFLQHNKCECRPKKDRARQENPCGPCSERRKHLFVQDPQTCKCSCKNTDSRCKARQLELNERTCRCDKPRR | 1.54 | 0.005 | 0.026 | – | –
2 | K48A VEGF (ligand, VEGF165 mutant from 293 cells, conditioned medium) APMAEGGGQNHHEVVKFMDVYQRSYCHPIETLVDIFQEYPDEIEYIFAPSCVPLMRCGGCCNDEGLECVPTEESNITMQIMRIKPHQGQHIGEMSFLQHNKCECRPKKDRARQENPCGPCSERRKHLFVQDPQTCKCSCKNTDSRCKARQLELNERTCRCDKPRR | – | 0.02 | 0.026 | 1.08 | –
3 | RIK(82-84)NLS VEGF (ligand, potential N-linked glycosylation site at position 82 (extent of glycosylation not apparent), Neo-glycosylation mutant from 293 cells, conditioned medium; also called R82N, I83L, K84S) APMAEGGGQNHHEVVKFMDVYQRSYCHPIETLVDIFQEYPDEIEYIFKPSCVPLMRCGGCCNDEGLECVPTEESNITMQIMNLSPHQGQHIGEMSFLQHNKCECRPKKDRARQENPCGPCSERRKHLFVQDPQTCKCSCKNTDSRCKARQLELNERTCRCDKPRR | 1.63 | > 100 | 0.029 | – | > 10000
4 | R23A VEGF (ligand, VEGF165 mutant from 293 cells, conditioned medium) APMAEGGGQNHHEVVKFMDVYQASYCHPIETLVDIFQEYPDEIEYIFKPSCVPLMRCGGCCNDEGLECVPTEESNITMQIMRIKPHQGQHIGEMSFLQHNKCECRPKKDRARQENPCGPCSERRKHLFVQDPQTCKCSCKNTDSRCKARQLELNERTCRCDKPRR | – | – | 0.03 | 1 | 2
5 | E64A VEGF (ligand, VEGF165 mutant from 293 cells, conditioned medium) APMAEGGGQNHHEVVKFMDVYQRSYCHPIETLVDIFQEYPDEIEYIFKPSCVPLMRCGGCCNDAGLECVPTEESNITMQIMRIKPHQGQHIGEMSFLQHNKCECRPKKDRARQENPCGPCSERRKHLFVQDPQTCKCSCKNTDSRCKARQLELNERTCRCDKPRR | 0.94 | – | 0.016 | – | 8

Binders with a lower IC50 [3], results first:

Row | IC50 [1] [ng/mL] | IC50 [2] [nM] | IC50 [3] [nM] | IC50 [4] [ng/mL] | IC50 [5] [ng/mL] | Binder
6 | 1.19 | – | 0.015 | – | 2 | H86A VEGF (ligand, VEGF165 mutant from 293 cells, conditioned medium) APMAEGGGQNHHEVVKFMDVYQRSYCHPIETLVDIFQEYPDEIEYIFKPSCVPLMRCGGCCNDEGLECVPTEESNITMQIMRIKPAQGQHIGEMSFLQHNKCECRPKKDRARQENPCGPCSERRKHLFVQDPQTCKCSCKNTDSRCKARQLELNERTCRCDKPRR
7 | – | 0.04 | 0.013 | 0.56 | – | R112A, E114A VEGF (ligand, VEGF165 mutant from 293 cells, conditioned medium) APMAEGGGQNHHEVVKFMDVYQRSYCHPIETLVDIFQEYPDEIEYIFKPSCVPLMRCGGCCNDEGLECVPTEESNITMQIMRIKPHQGQHIGEMSFLQHNKCECRPKKDRAAQANPCGPCSERRKHLFVQDPQTCKCSCKNTDSRCKARQLELNERTCRCDKPRR
8 | – | 0.004 | 0.009 | 0.54 | – | E44A VEGF (ligand, VEGF165 mutant from 293 cells, conditioned medium) APMAEGGGQNHHEVVKFMDVYQRSYCHPIETLVDIFQEYPDEIAYIFKPSCVPLMRCGGCCNDEGLECVPTEESNITMQIMRIKPHQGQHIGEMSFLQHNKCECRPKKDRARQENPCGPCSERRKHLFVQDPQTCKCSCKNTDSRCKARQLELNERTCRCDKPRR
9 | – | 0.007 | 0.008 | 0.51 | – | E42A VEGF (ligand, VEGF165 mutant from 293 cells, conditioned medium) APMAEGGGQNHHEVVKFMDVYQRSYCHPIETLVDIFQEYPDAIEYIFKPSCVPLMRCGGCCNDEGLECVPTEESNITMQIMRIKPHQGQHIGEMSFLQHNKCECRPKKDRARQENPCGPCSERRKHLFVQDPQTCKCSCKNTDSRCKARQLELNERTCRCDKPRR
